What was measured:
hypophysectomized rats [1] = assay: Growth of hypophysectomized rats given hGH (Example 13); type: in vivo, rat; details: hypophysectomized female rats; initial results
Description: The controlled delivery of active human growth hormone (hGH, MW 20 Kd) was confirmed in the hypophysectomized rat model. Hypophysectomized female rats purchased from Taconic Labs (Germantown, N.Y.) were weighed each morning. Prior to the initiation of the study the rats were held 7 days to confirm lack of growth. The rats were divided into 3 groups of equal mean weights. Group 1 remained untreated and served as a negative control. Group 2 received an implant of hGH in a hydrogel made of a 3:1 blend of 3.4KL5 and 3.4KC6 (each device contained approximately 1 mg of hGH). The rats in Group 3 were injected with 100 μg hGH subcutaneously each day for the duration of the study.

[2] = In vitro release of EPO from 3.4KL5 discs, size exclusion chromatography (Example 14); type: physicochemical
Protocol: To a sterile 20 mL vial were added: 0.0330 g of TEOA (neat), 1.0076 g of 3.4KL5, 0.0598 g of 1000 ppm eosin (in PBS, pH 7.0), and 2.32 g solution of EPO (10,000 units/mL). No vinyl pyrrolidone, or other polymerizable monovinyl monomer was added. The resulting mixture was mixed and polymerized by light (ILC Technology, Inc. Xenon Light Source with Fiber Optics).
The rate of in vitro release was conducted by averaging the release from 3 discs containing an average of 2500 units per disc. The release was conducted in 4 mL of PBS (pH 7.4) at 39° C. The release media was exchanged daily. Analysis was done by size exclusion chromatography. (HPLC: model 2690 by waters, Column: SEC 250 by BioRad, mobile phase: 0.8M TFA in 60% acetonitrile @1.5 mL/min, detector wavelength: 220 nm).

male Sprague-Dawley rats = assay: Fraction of reticulocytes in rats given EPO (Example 11); type: in vivo, rat; details: day 5, Acridine Orange, flow cytometry
Protocol: The controlled delivery of active human erythropoeitin (EPO) was confirmed in male Sprague-Dawley rats purchased from Taconic Labs (Germantown, N.Y.). Hydrogel devices were manufactured to contain 3000 Units per device, as described in Example 14. These devices were prepared in the absence of vinyl pyrrolidone, and other polymerizable monovinyl monomers. One of these devices was implanted in each of 3 rats. Three other rats received a subcutaneous injection of EPO (1000 Units) daily for 3 days. A control group of 3 rats received no treatment.
On day 5 after implantation of the device or the start of the subcutaneous injections, venous blood samples were obtained from each rat and stored in EDTA. The fraction of reticulocytes (immature red blood cells) was determined after staining with Acridine Orange by automated flow cytometry.

[3] = In vitro short term release of insulin from 3.4KL5, SEC-HPLC (Example 6); type: physicochemical; details: Zn-Insulin 47% loading in 3.4KL5
Protocol: Device Preparation: A degradable macromer (3.4KL5) was used. […] The protein was loaded at a loading of 47%, based on dry weight. Three samples were prepared.
The samples were prepared as described in Example 4. The samples were analyzed by SEC-HPLC for the detection of monomers, dimers and soluble aggregates, using the conditions described in Example 5.

[4] = In vitro release of insulin from 3.4KL5 particles, size exclusion chromatography (Example 15); type: physicochemical
Protocol: No vinyl pyrrolidone, or other polymerizable monovinyl monomer was added. The resulting mixture was mixed and placed into 10 mL glass tubes. The tubes were exposed to xenon light (ILC Technology, Inc. Xenon Light Source with Fiber Optics) for 10 seconds. The semi-cured hydrogel was pushed out of the glass tube and further polymerized for 3.5 minutes. The cured hydrogel rods were placed in 15 mL of heptane and ground using a homogenizer (Silverson L4RT-A) for 30 seconds @5000 rpm, followed by 30 seconds @3000 rpm. The heptane was decanted, and the powder was dried under nitrogen.
Particles (16 mg) were placed in a porous (0.8 mm) “release-bag” (described in Example 5). The in vitro release was calculated by averaging the release from 2 release bags. The release-bag was placed into 2 mL of PBS (pH 7.4) at 39° C. The release media was exchanged every 15 minutes for the first 2 hours and every 30 minutes thereafter. Analysis was done by size exclusion chromatography. (HPLC: model 2690 by waters, Column: SEC 250 by BioRad, mobile phase: 0.8M TFA in 60% acetonitrile @1.5 mL/min, detector wavelength: 220 nm).

[5] = Release of bST from cylindrical hydrogel devices of large and small diameter, HPLC (Example 10); type: physicochemical
Protocol: A macromer mixture containing approximately 30% (w/w) of bST was prepared using the methods described above. The macromer/protein mixture was put in a glass cylinder having an internal diameter of either 1.12 mm or 0.61 mm. The system was exposed to light for 20 seconds, removed from the glass cylinder, placed on aluminum foil, and exposed to light for an additional 3.5 minutes. The resulting hydrogel cylinders were placed in 1 mL of release media (PBS, pH 7.4), and the released bST was monitored by HPLC. […] In addition, the characteristics of the bST release indicated degradation/swelling of a controlled system. […] For n=0.5, the drug release follows a Fickian-diffusion mechanism. For n>0.5, non-Fickian behavior was observed.
In a different analysis based only on diffusion, the flux from the cylinder was analyzed using the following Fickian equation: J=D*A*ΔC/ΔX, where J is the flux; D is the diffusion constant; A is the surface area; C is the concentration in the cylinder; and […] from the center. In this analysis the flux should differ dramatically whether the release occurred from either a large or a small diameter cylinder. Theoretical analysis predicted that under Fickian diffusion, when the smaller diameter cylinder released 20%, the larger diameter cylinder would release 7% of the incorporated drug. […]

[6] = In vitro release of bST from 3.4KL5/PEG-diacrylate blend discs, SEC-HPLC (Example 5); type: physicochemical
Protocol: Device Preparation: A blend of a degradable macromer (3.4KL5) and a non-degradable macromer (PEG-diacrylate, MW 3,400) was used. The protein used was ZnbST (Monsanto/Protiva). The protein was loaded at a loading of 20%, based on dry weight. 3 samples were prepared, as follows.
Sample preparation: 20 μL of the bST-precursor solution were prepared, as described in Example 1. The mixture was pipetted using a positive displacement pipette with a silanized glass tip. The solution was placed onto a silanized glass slide. Using pieces of plastic sheets with thicknesses of about 0.4±0.2 mm as spacers, another silanized glass slide was placed on top and held firmly in place using binder clips. A light source (ILC Technology, Inc. Xenon Light Source with Fiber Optics) was adjusted to about a 5-cm distance from the glass slide using clamps and a stand. The center of the disc was illuminated; both sides of the disc were illuminated, for two minutes each.
The clips, the glass slide, and the spacers were carefully removed. With a spatula and tweezers, the discs were removed and weighed on a clean, tared silanized glass slide. The disc was placed into a heat-sealed membrane bag, as described in more detail below. One 20 μL disc was placed in each bag. The bag was heat-sealed, placed in 2.0 mL of phosphate buffer release media (0.01% NaN3, 0.05M PBS, pH 7.4), placed on an orbital shaker turning at 100 rpm, and incubated at 39° C.
For each time point, the bag was placed into fresh 2.0 mL of PBS Release Media. Samples were collected for analysis every day for as long as the bST was being released.
Membrane bags were prepared as follows. Membrane sheets were cut into pieces of approximately 7×2.5 cm. The sheets were folded in half. Using a Bunsen burner or a propane torch, a spatula was heated until it became red. The edges of the sheets were aligned, and the side of the membrane was cut with the […] to seal the sides. […]
The samples were analyzed daily by SEC-HPLC. Monomers, dimers, and soluble aggregates could be detected using this method. […]

hypophysectomized rats [7] = assay: Growth of hypophysectomized rats given bST (Example 9); type: in vivo, rat; details: hypophysectomized female rats, 118±1.5 grams on day 1; mean±sem
Description: The controlled delivery of active bovine somatotropin (MW 20 Kd) was confirmed in the hypophysectomized rat model. Hypophysectomized female rats were purchased from Taconic Labs (Germantown, N.Y.). The rats were weighed each morning. Prior to the initiation of the study, the rats were held 7 days to confirm lack of growth. On day 1 of the study the rats weighed 118±1.5 grams (mean±sem, n=18). The rats were divided into 3 groups of equal mean weights. Group 1 remained untreated and served as a negative control. Group 2 received an implant of bST in a hydrogel made of a blend of 3:1 of 3.4KL5 and PEGDA (each device contained 0.9 to 1.1 mg of bST). The rats in Group 3 were injected with 100 μg bST subcutaneously each day for the duration of the study.

[8] = In vitro release of ZnbST from 50:50 blend of 3.4KL5 and 3.4KC6, SEC-HPLC (Example 7); type: physicochemical; details: 25% loading in 50:50 blend of 3.4KL5 and 3.4KC6
Protocol: Devices were prepared as describe above. Macromers containing a blend of a soluble macromer (3.4KL5) and an insoluble macromer (3.4KC6) were used in a ratio of 50:50. The protein used was ZnbST (Protiva/Monsanto); it was loaded at a loading of 25%, based on dry weight. Six samples were prepared. The samples were analyzed by SEC-HPLC, as described above. The samples were monitored for the presence of monomers, dimers and soluble aggregates.

[9] = In vitro release of ZnbST from 75:25 blend of 3.4KL5 and 3.4KC6, SEC-HPLC (Example 8); type: physicochemical
Protocol: Devices were prepared as describe above. A blend of a soluble macromer (3.4KL5) and an insoluble macromer (3.4KC6) were used, in a ratio of 75:25. The protein ZnbST (Protiva/Monsanto) was loaded at a loading of 25%, based on dry weight. Six samples were prepared. The samples were analyzed by SEC-HPLC to detect monomers, dimers, and soluble aggregates, as described above.

hGH: human growth hormone (MW 20 Kd)
growth of the rats (hypophysectomized rats [1]): exhibited continued growth

EPO: human erythropoeitin
EPO still being released ([2]; after 120 hours): over 500 units
period over which EPO was released ([2]; average 2500 units per disc, PBS pH 7.4, 39° C.): at least 120 hours
reticulocytes (male Sprague-Dawley rats): about 19%

Insulin: Zn-Insulin / insulin purchased from Sigma, loaded into 3.4KL5
dimers or soluble aggregates ([3]; SEC-HPLC): no dimers or soluble aggregates were detected
release achieved (complete release) ([3]; within 24 hours): 100%
period over which insulin was released ([4]; 3.4KL5 particles (16 mg) in release-bag, PBS pH 7.4, 39° C.): 90 min
insulin still being released ([4]; after 90 minutes, 3.4KL5 particles): 100 µg

B1: bovine somatotropin (protein, UniProt P01246 27-217, looked up)
Somatotropin: AFPAMSLSGLFANAVLRAQHLHQLAADTFKEFERTYIPEGQRYSIQNTQVAFCFSETIPAPTGKNEAQQKSDLELLRISLLLIQSWLGPLQFLSRVFTNSLVFGTSDRVYEKLKDLEEGILALMRELEDGTPRAGQILKQTYDKFDTNMRSDDALLKNYGLLSCFRKDLHKTETYLRVMKCRRFGEASCAF
notes: bovine somatotropin (MW 20 Kd)
exponent n characteristic of the mode of transport ([5]; both cylinders, n>0.5 = non-Fickian): 2
incorporated drug released by the larger diameter cylinder (observed) ([5]; when the smaller diameter cylinder released 20%): 16%
initial release on each of the first two days ([6]; ZnbST 20% loading in blend of 3.4KL5 and PEG-diacrylate): 12%
period over which bST was released ([6]; ZnbST 20% loading in blend of 3.4KL5 and PEG-diacrylate MW 3,400, PBS pH 7.4, 39° C.): 14 days
dimers or soluble aggregates in the release media ([6]; ZnbST 20% loading in blend of 3.4KL5 and PEG-diacrylate, SEC-HPLC): No detectable levels
body weight after 11 days (hypophysectomized rats [7]): 151±4 grams

B2: ZnbST: ZnbST protein (Monsanto/Protiva) loaded into macromer hydrogels (protein, UniProt P01246 27-217, looked up)
Somatotropin: AFPAMSLSGLFANAVLRAQHLHQLAADTFKEFERTYIPEGQRYSIQNTQVAFCFSETIPAPTGKNEAQQKSDLELLRISLLLIQSWLGPLQFLSRVFTNSLVFGTSDRVYEKLKDLEEGILALMRELEDGTPRAGQILKQTYDKFDTNMRSDDALLKNYGLLSCFRKDLHKTETYLRVMKCRRFGEASCAF
modifications: zinc complex
notes: ZnbST protein (Monsanto/Protiva) loaded into macromer hydrogels
initial burst release [8]: no initial burst release was observed
period over which ZnbST was released [8]: 20 days
concentrations of dimers or soluble aggregates ([8]; SEC-HPLC): less than 2%
period over which ZnbST was released ([9]; 25% loading in 75:25 blend of 3.4KL5 and 3.4KC6): 17 days
dimer or aggregate released ([9]; 75:25 blend of 3.4KL5 and 3.4KC6, SEC-HPLC): Very little
incorporated ZnbST released ([9]; within 13 days of release, 75:25 blend of 3.4KL5 and 3.4KC6): 90%
